Measurements reported in US7981997B2, “Growth factor which acts through ErbB-4 RTK” (Yeda Research And Development Co., priority 2000, dated 2011).

Tests used:
Type in all cases: cell-based
D3 cells = experiment: Tyrosine phosphorylation and MAPK activation, immunoblotting; conditions: doses as high as 1 μg/ml
Description: (§1) For receptor activation studies, derivatives of the 32D cell line were resuspended in phosphate-buffered solution (PBS) and incubated at 22 C for 15 minutes before adding growth factors and incubating for five minutes at 37 C. Cells were then pelleted and lysed in ice cold solubilization buffer [50 mM Tris-HCl pH 7.5, 150 mM NaCl, 1% Nonidet-P40, 0.5% Na-deoxycholate, 0.1% sodium dodecyl sulfate (SDS), 1.5 mM EDTA, 1.5 mM MgCl2, 2 mM Na-orthovanadate, 1 mM phenylmethylsulfonyl fluoride (PMSF), 10 µg/ml aprotinin and 10 µg/ml leupeptin] and left on ice for 15 minutes. The whole cell extract was then cleared by centrifugation (12,000×g for 10 minutes at 4 C), immediately boiled in reducing gel sample buffer, and resolved by 10% SDS PAGE before being transferred onto nitrocellulose. Filters were blocked in TBST buffer (0.02 M Tris-HCl pH 7.5, 0.15 M NaCl, 0.05% Tween-20) containing 1% milk for 40 minutes at 22 C, blotted with primary antibodies in TBST overnight at 4 C, followed by conjugation with a secondary antibody linked to horseradish peroxidase and subsequent detection by chemiluminescence (Amersham Corp.).
(§2) Evidently, NRG-4 binds to ErbB-4 and mediates cell proliferation through activation of this receptor. Because other ErbB ligands stimulate cell growth via tyrosine phosphorylation of their respective receptors and activation of the intervening mitogen-activated protein kinase (MAPK) cascade, these two signaling steps were tested in NRG-4-responsive myeloid cells expressing ErbB-4 (D4 and D24 cell lines). Cells were stimulated with 100 ng/ml of activating ligand for five minutes, followed by lysis and analysis by immunoblotting.

D1 cells = experiment: as above; conditions: doses as high as 1 μg/ml
Description: as §1, §2

D23 cells [1] = experiment: as above; conditions: doses as high as 1 μg/ml
Description: as §1, §2

D12 cells = experiment: as above; conditions: doses as high as 1 μg/ml
Description: as §1, §2

D13 cells [2] = experiment: as above; conditions: doses as high as 1 μg/ml
Description: as §1, §2

D2 cells = experiment: as above; conditions: doses as high as 1 μg/ml
Description: as §1, §2

[3] = test system: D2 cells (32D expressing ErbB-2); experiment: 32D cell proliferation, 24-hour dose-response MTT assay; conditions: 24-hour dose-response, without IL-3
Description: (§3) The indicated derivative lines of 32D cells were tested for cell proliferation using the [3-(4,5-dimethylthiazol-2-yl)-2,5-diphenyl]tetrazolium bromide (MTT) assay. […] The MT assay was performed 24 hours later. Results are presented as percent induction over the control untreated cells, and are the mean±S.D. of 4 determinations. Each experiment was repeated at least twice with similar findings.
(§4) The establishment of a series of interleukin 3 (IL-3)-dependent 32D myeloid cells expressing all combinations of ErbB proteins has been described (Alimandi et al., 1997; Pinkas-Kramarski et al., 1996; Shelly et al., 1998). Cells were maintained in RPMI medium with 10% fetal bovine serum (FBS) and dilute IL3-containing conditioned medium. Prior to proliferation assays, cells were washed three times in RPMI/FBS and plated (5×10^5 cells/ml; 0.1 ml/well) into 96-well flat-bottomed plates with the indicated liconcentrations or with IL-3 (1:1000 dilution of conditioned medium). Cell survival was determined 24 hours later, or after the indicated time intervals, by MTT assay, as previously described (Mosman, 1983). MTT (0.05 mg/ml) was incubated with the analyzed cells for 2 hours at 37 C. Living cells can transform the tetrazolium ring into dark blue formazan crystals, that can be quantified by reading the optical density at 540-630 nm after lysis of the cells with acidic isopropanol.
(§5) To test the prediction that the novel transcript encodes an ErbB-specific ligand, the corresponding full-length EGF-like domain (residues 4-50, FIG. 1a, SEQ ID NO:2) was synthesized, denatured and refolded to allow proper disulfide bridging. This method has been used before to synthesize functionally active derivatives of other EGF-like growth factors (Barbacci et al., 1995; Lin et. al., 1988; Shelly et al., 1998). A series of derivatives of the 32D cell line engineered to express different ErbB receptors or their combinations has been previously described (Pinkas-Kramarski et al., 1996; Shelly et al., 1998). The myeloid 32D parental cells require cytokine stimulation, such as interleukin 3 (IL3) for their growth, and were chosen because they lack endogenous ErbB expression.

[4] = test system: D3 cells (32D expressing ErbB-3); experiment: as above; conditions: 24-hour dose-response
Description: as §3, §4, §5

[5] = test system: D12 cells (32D co-expressing ErbB-1 and ErbB-2); experiment: as above; conditions: 24-hour dose-response
Description: as §3, §4, §5

[6] = test system: D24 cells (32D co-expressing ErbB-4 and ErbB-2); experiment: as above
Description: as §3, §4, §5

D23 cells [7] = experiment: as above; conditions: 24-hour dose-response
Description: as §3, §4, §5

D13 cells [8] = experiment: as above; conditions: 24-hour dose-response
Description: as §3, §4, §5

[9] = test system: D1 cells (32D expressing ErbB-1); experiment: as above; conditions: 24-hour dose-response, without IL-3
Description: as §3, §4, §5

[10] = test system: D4 cells (32D expressing ErbB-4); experiment: as above; conditions: 24-hour dose-response, in comparison to NRG-1β control
Description: as §3, §4, §5

B1: NRG-4: synthetic refolded mouse EGF-like domain of NRG-4 (residues 4 to 50, SEQ ID NO:2) (peptide, listed as Mus musculus)
chain: MPTDHEQPCGPRHRSFCLNGGICYVIPTIPSPFCRCIENYTGARCEEVFLPSSSIPSESNLSAAFVVLAVLLTLTIAALCFLCRKGHLQRASSVQCEISLVETNNTRTRHSHREH
D3 cells
  stimulation of D3 cells: did not stimulate
D1 cells
  stimulation of D1 cells: did not stimulate
D23 cells [1]
  stimulation of D23 cells: did not stimulate
D12 cells
  stimulation of D12 cells: did not stimulate
D13 cells [2]
  stimulation of D13 cells: did not stimulate
D2 cells
  stimulation of D2 cells: did not stimulate
[3]
  mitogenic response of D2 cells: did not respond
[4]
  mitogenic response of D3 cells: did not respond
[5]
  mitogenic response of D12 cells: D24 cells) was the only line that responded mitogenically
[6]; 24-hour dose-response, MTT
  mitogenic response of D24 cells: responded mitogenically
[6]; cells co-overexpressing ErbB-2 and ErbB-4
  mitogenic potency compared with NRG-1 in D24 cells: almost equipotent
D23 cells [7]
  mitogenic response of D23 cells: D24 cells) was the only line that responded mitogenically
D13 cells [8]
  mitogenic response of D13 cells: D24 cells) was the only line that responded mitogenically
[9]
  mitogenic response of D1 cells: did not respond
[10]
  mitogenic response of D4 cells: modest dose-dependent mitogenic response
